Measured values reported in publication PMC10491584, “Structural convergence endows nuclear transport receptor Kap114p with a transcriptional repressor function toward TATA-binding protein” (Nature Communications, 2023).
Where “and” joins values, the source holds several entries; their conditions need not be identical. Identical values can stand only once.

Experiments:
Kap114pΔY933 = target: T1, Kap114pΔY933 (S. cerevisiae, UniProt P53067 1-1004, ΔY933); experiment: ITC; Kap114p (wild type or mutant) 50 uM in the sample cell, partner 500 uM in the syringe; 25 °C; 20 mM HEPES pH 7.4, 150 mM NaCl; triplicate; settings: both partners purified
T1 construct: Kap114p, S. cerevisiae, full length with residue Y933 deleted; also called Kap114p(DY933); source: E. coli (Rosetta strain), purified (GST resin, MonoQ, Superdex 200)
T1 sequence (looked up): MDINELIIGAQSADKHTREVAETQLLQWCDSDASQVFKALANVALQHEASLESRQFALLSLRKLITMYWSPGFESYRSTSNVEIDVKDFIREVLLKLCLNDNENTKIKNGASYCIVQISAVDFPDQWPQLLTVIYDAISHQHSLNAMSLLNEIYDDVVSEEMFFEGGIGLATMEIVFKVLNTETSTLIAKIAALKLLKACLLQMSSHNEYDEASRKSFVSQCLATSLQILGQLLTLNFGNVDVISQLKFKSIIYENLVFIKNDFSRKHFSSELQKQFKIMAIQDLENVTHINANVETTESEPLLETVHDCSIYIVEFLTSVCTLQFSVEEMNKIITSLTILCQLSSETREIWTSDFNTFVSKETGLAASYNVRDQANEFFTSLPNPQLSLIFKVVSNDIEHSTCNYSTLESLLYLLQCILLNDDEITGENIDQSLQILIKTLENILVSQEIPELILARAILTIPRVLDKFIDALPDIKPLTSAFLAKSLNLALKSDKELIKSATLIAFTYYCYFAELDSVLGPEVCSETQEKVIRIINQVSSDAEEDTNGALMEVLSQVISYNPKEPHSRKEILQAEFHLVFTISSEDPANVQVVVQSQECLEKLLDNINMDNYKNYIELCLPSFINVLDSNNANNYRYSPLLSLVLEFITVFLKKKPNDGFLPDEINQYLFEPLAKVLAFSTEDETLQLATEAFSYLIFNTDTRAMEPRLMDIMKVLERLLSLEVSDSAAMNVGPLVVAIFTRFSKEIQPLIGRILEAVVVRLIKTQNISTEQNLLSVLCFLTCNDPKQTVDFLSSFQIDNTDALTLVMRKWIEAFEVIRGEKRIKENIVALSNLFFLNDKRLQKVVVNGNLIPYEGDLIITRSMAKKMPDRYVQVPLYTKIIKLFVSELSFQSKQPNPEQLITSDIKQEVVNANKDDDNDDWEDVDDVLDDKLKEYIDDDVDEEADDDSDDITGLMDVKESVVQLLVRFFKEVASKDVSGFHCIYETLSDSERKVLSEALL

Kap114pΔ(848-875) = target: T2, Kap114pΔ(848-875) (S. cerevisiae, UniProt P53067 1-1004, Δ(848-875)); experiment: as above; settings: both partners purified
T2 construct: also called Kap114p(D848-875); source: E. coli (Rosetta strain), purified (GST resin, MonoQ, Superdex 200)
T2 sequence (looked up): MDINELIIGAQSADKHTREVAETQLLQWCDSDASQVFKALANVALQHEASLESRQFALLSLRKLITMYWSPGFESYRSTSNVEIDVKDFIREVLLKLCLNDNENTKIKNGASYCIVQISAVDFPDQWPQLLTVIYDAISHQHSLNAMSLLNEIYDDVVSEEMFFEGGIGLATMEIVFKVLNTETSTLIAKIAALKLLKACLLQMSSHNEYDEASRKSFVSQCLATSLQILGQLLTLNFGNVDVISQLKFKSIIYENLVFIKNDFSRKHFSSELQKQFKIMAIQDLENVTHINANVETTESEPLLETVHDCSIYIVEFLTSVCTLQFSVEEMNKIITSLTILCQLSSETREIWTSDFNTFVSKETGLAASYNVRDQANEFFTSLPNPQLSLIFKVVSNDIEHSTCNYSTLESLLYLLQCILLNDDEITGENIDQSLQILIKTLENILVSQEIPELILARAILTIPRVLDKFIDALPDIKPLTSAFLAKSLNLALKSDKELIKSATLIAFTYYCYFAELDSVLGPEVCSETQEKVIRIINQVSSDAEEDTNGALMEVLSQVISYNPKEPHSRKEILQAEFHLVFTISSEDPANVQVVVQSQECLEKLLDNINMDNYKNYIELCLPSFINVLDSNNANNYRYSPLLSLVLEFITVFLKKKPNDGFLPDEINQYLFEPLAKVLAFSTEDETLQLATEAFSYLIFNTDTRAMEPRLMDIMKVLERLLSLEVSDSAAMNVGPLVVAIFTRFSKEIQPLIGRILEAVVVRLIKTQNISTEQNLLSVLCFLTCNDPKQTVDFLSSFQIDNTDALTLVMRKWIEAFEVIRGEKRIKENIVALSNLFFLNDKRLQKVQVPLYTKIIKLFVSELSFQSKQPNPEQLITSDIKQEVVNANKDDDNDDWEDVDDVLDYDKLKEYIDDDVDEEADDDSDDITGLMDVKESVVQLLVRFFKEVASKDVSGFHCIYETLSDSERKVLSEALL

B1: core domain of yTBP (a.a. 61-240) (domain or fragment, S. cerevisiae, UniProt P13393 61-240, looked up)
chain: SGIVPTLQNIVATVTLGCRLDLKTVALHARNAEYNPKRFAAVIMRIREPKTTALIFASGKMVVTGAKSEDDSKLASRKYARIIQKIGFAAKFTDFKIQNIVGSCDVKFPIRLEGLAFSHGTFSSYEPELFPGLIYRMVKPKIVLLIFVSGKIVLTGAKQREEIYQAFEAIYPVLSEFRKM
notes: 61-240; also called yTBP^C; yTBPc; source: E. coli (Rosetta strain), purified (Ni-NTA, HiTrap SP, Superdex 75); not shown: 6xHis, N-terminal, cleaved
With B1 as the binder, how does the Ka (Kap114pΔY933) read?
Its Ka is 1.91e+08 M⁻¹ and 1.5e+08 M⁻¹ and 8.48e+07 M⁻¹.

And the Kd (Kap114pΔY933)?
Its Kd is 7.7 nM.

What about the Ka (Kap114pΔ(848-875)) of the same binder?
Its Ka is 4.16e+08 M⁻¹ and 7.85e+08 M⁻¹ and 6.96e+08 M⁻¹.

What about the Kd (Kap114pΔ(848-875)) of the same binder?
The Kd was 1.7 nM.
